# Measurements published in US20240327460A1, “NORA INHIBITORS AND METHODS OF USE” (priority 2021, published 2024).
# T1: S. aureus NorA with a carboxy-terminal decahistidine tag, purified (Staphylococcus aureus, UniProt Q5HHX4 1-388)
# T1 construct: not shown: carboxy-terminal decahistidine tag
# T1 sequence: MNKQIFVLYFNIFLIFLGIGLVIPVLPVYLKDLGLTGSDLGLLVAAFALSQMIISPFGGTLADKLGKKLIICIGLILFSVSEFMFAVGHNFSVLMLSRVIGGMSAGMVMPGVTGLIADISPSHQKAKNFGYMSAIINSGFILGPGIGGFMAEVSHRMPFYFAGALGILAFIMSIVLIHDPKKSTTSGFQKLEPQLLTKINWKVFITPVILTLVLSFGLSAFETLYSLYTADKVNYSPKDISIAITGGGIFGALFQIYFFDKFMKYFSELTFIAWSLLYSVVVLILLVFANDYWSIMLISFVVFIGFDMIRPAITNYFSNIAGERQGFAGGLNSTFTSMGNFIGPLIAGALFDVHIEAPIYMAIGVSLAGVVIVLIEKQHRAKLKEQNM
# T2: NorA (Staphylococcus aureus, UniProt Q5HHX4)
# T2 construct: made in house; host or cells: C43 (DE3) E. coli
# T2 sequence (Q5HHX4 whole entry, looked up): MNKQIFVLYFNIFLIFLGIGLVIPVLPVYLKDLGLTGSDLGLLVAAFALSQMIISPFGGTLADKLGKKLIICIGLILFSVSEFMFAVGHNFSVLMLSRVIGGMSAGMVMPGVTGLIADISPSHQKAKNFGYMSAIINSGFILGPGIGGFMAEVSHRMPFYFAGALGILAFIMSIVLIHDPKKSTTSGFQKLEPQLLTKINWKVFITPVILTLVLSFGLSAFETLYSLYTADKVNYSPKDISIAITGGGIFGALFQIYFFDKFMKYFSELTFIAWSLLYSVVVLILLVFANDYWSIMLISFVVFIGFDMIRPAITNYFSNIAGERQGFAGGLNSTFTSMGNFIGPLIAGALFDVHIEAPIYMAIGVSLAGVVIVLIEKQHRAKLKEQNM
# What was measured:
# [1] = system: MRSA; assay type: cell-based, Staphylococcus aureus; conditions: 12.5 μg/ml norfloxacin
# Protocol: To test the effects of peptides, overnight cultures of wild-type MRSA and MRSA^ΔnorA in TSB media were diluted 1:1,000 in TSB with varying concentrations of peptides, in the presence or the absence of norfloxacin (12.5 μg/ml). All the peptide concentrations contained equal amount of the DMSO vehicle. OD600nm was measured as a function of time in a BioScreen C device at 37° C. with shaking between measurements every 15 min. Three independent experiments were acquired; reported errors reflect the standard deviation among the independent experiments.
# [2] = target: T1, S. aureus NorA with a carboxy-terminal …; assay: MST
# [3] = target: T2, NorA; assay: Microscale thermophoresis (MST) binding of fluorescently labelled Fabs to NorA in PMAL-C8 amphipol; parameters: species or system S. aureus; conditions: labelled Fab 40 nM
# Protocol: Amphipol-purified NorA underwent an additional round of SEC to remove free amphipol. Purified Fabs were prepared as described above and labelled with a primary amine-reactive 647 nm fluorophore (Nanotemper) according to the manufacturer's instructions. Efficient labelling was verified spectroscopically by measuring absorbance at 280 and 650 nm. Microscale thermophoresis (MST) experiments were performed on a Monolith NT.115 Pico instrument (Nanotemper Technologies). Labelled Fab at 40 nM final concentration was mixed with NorA in 20 mM Tris pH 7.0, 100 mM NaCl, and 0.025% (w/v) Tween-20. All samples were incubated for 15 min and loaded into premium glass capillaries. The normalized fluorescent signal (Fnorm) was plotted as a function of ligand concentration and fit with a non-linear sigmoidal regression model (GraphPad Prism) using a Hill slope equal to 1.0 to obtain the Kd values. The error in Kd values for Fab25 (1.2±0.7 μM) and Fab36 (140±20 nM) represent the average and standard deviation of two independent runs with three replicates per independent run. The error range in the Kd value for Fab36^W133A (2 to 4 μM) corresponds to the 95% confidence interval of the non-linear fit. […] MST binding experiments with Fab36^W133A and Fab36^R134A were collected with three replicates each.
molecule,measurement,setting,value
"NH2-YYYYAWEVGGYWR-CONH2 (H-YYYYAWEVGGYWR-NH2) [NPI-2, control peptide substituting a glutamate for the arginine residue in the tryptophan-arginine motif, reference compound]",growth arrest of MRSA in the presence of norfloxacin,[1],displayed no growth arrest of MRSA
"Fab36^R134A (Fab, V domains shown) VH: EVQLVESGGGLVQPGGSLRLSCAASGFTFSSSSIHWVRQAPGKGLEWVASISSSSGSTSYADSVKGRFTISADTSKNTAYLQMNSLRAEDTAVYYCARYSRYYYYAWAVGGYWGGLDYWGQGTLVTVSS VL: DIQMTQSPSSLSASVGDRVTITCRASQSVSSAVAWYQQKPGKAPKLLIYSASSLYSGVPSRFSGSRSGTDFTLTISSLQPEDFATYYCQQSSSSLITFGQGTKVEIKR",fold reduced binding affinity against Fab36,[2],> 100 fold
"Fab36^R134A (antibody, V domains shown) VH: EVQLVESGGGLVQPGGSLRLSCAASGFTFSSSSIHWVRQAPGKGLEWVASISSSSGSTSYADSVKGRFTISADTSKNTAYLQMNSLRAEDTAVYYCARYSRYYYYAWAVGGYWGGLDYWGQGTLVTVSS VL: DIQMTQSPSSLSASVGDRVTITCRASQSVSSAVAWYQQKPGKAPKLLIYSASSLYSGVPSRFSGSRSGTDFTLTISSLQPEDFATYYCQQSSSSLITFGQGTKVEIKRTV",Kd,[3],> 14 µM
